# Laboratory results from the nanobody polyreactivity screen of Harvey et al. (2022).
# Assay: yeast display, Sf9 membrane polyspecificity reagent, FACS + sequencing; frameworks hold sequencing errors
# Method in brief: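 Nanobodies came from a synthetic yeast display library in Saccharomyces cerevisiae BJ5465, induced with galactose for 36–48 hours and stained for 1 hour at 4 °C with 10% biotinylated, detergent-solubilized Sf9 membrane reagent. Cells were enriched on streptavidin microbeads and then FACS-sorted, with low and high (top ~1%) gates set on anti-HA fluorescence for expression and streptavidin fluorescence for reagent binding. Each polyreactivity label reflects the gate a clone came from. Genes were amplified by colony PCR, sequenced by MiSeq 2 × 250 and filtered by CDR length.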
row,Sequence,polyreactivity (PSR sort gate)
1,QVQLVESGGGLVQAGGSLRLSCAASGRIFHWYTMGWYRQAPGKEMELVAAISGSGGSTHYADSVKGRLTISRDNAKNTVYLQMNSLKPEDTAVYYCAAYIPVRYGTSDRGYWGQGTQVTVSS,low polyreactivity
2,QVQLVESGGGLVQAGGSLRLSCAASGRIFHYAMGWYRQAPGKERELVAGISKRGGSTYYADSVKGRFTISRDNAKNTVYLQMNSLKPEDTAVYYCAAGRAYDGTKHDYWGQGTQVTVSS,high polyreactivity
3,QVQLVESGGGLVQAGGSLRLSCAASGRIFIAYAMGWYRKAPAKERELVAAITDDGGTNYADSVKGRFTISRDNAKNTVYLQMKSLKPEDTAVYYCAATYLIGYYYVWEYDYWGQGTQVTVSS,low polyreactivity
4,QVQLVESGGGLVQAGGSLRLSCAASGRIFIAYAMGWYRQAPWKEREFVAAISSRGGSTYYADSVKGRFTISRDNAKNTVYLQMNSLKPEDTAVYYCGAWTLYWSHTTWSYDYWGQGTQVTVSS,low polyreactivity
5,QVQLVESGGGLVQAGGSLRLSCAASGRIFIIYAMGWYRQAPGKEREFVAAITSSGGSTYYADSVKGRFTISRDNAKNTVYLQMYSLKPEDTAVYYCNKVTRYYREYHRDSQYGYWGQGTQVTVSS,high polyreactivity
6,QVQLVESGGGLVQAGGSLRLSCAASGRIFILNTMGWYRQAPGKERELLAGISYSGSTYYADSVKGRFTISRDNAKNTVYLQMNSLKPDDTAVYYCAADYDAAWYNDGYYYWGQGTQVTVSS,low polyreactivity
7,QVQLVESGGGLVQAGGSLRLSCAASGRIFILYAMGWYRQAPGKERELVAAITGGSTYYADSVKGRFTISRDNAKNTVYLQMNSLKPEDSAVYYCAADVRHYIWEYYYWGQGTQVTVSS,low polyreactivity
8,QVQLVESGGGLVQAGGSLRLSCAASGRIFIPYAMGWYRQAPGKERELVAVISWNGGSTYYADSVKGRFTISRDNAKNTVYLQMNSLKPEDTAVYYCAADTYPYAKMDYWGQGTQVTVSS,low polyreactivity
9,QVQLVESGGGLVQAGGSLRLSCAASGRIFIRAMGCYTQAPGKERELVAGITNGGITYYADSVKGRFTISRDNAKTTVYLQMNSLKPEDTAVYSCNARSRSVLYKYDYWGQGTQETVSS,low polyreactivity
10,QVQLVESGGGLVQAGGSLRLSCAASGRIFIRNAMGWYRQAPGKERELVAAISRSGGRTYYADSVKGRFTISRDNAKNTVYLQMNSLKQEDTAVYYCARTTPYFNVDCGGYDYWGQGTQVTVSS,high polyreactivity
11,QVQLVESGGGLVQAGGSLRLSCAASGRIFIRYAMGWYRQAPGKERELVAGITSGGDTYYADSVKGRFTISRDNAKNTVYLQMNSLKPEDTAVYYCARVRYGRMDYWGQGTQVTVSS,high polyreactivity
12,QVQLVESGGGLVQAGGSLRLSCAASGRIFIVNAMGWYRQATGKERELVAAISYRGGSTYYADSVKGRFTISRDNAKNTVYLQMNRLKPEDTAVYYCAADRYSYLGYPYEYEYWGQGTQVTVSS,low polyreactivity
13,QVQLVESGGGLVQAGGSLRLSCAASGRIFIVYAMGRYRQAPGKERELVAAISWNGGRTYYADSVKGRFTISRDNAKNTVYLQMNSLKPEDTAVYYCNAVALYPYTTYDYWGQGTQVTVSS,high polyreactivity
14,QVQLVESGGGLVQAGGSLRLSCAASGRIFIVYAMGWYRQAPGKERELVATISWSGGSTYYADSVKGRFTISRDNAKNTVYLQMTSLKPEDTAVYYCAADYRWVDSDSSLFYWYDYWGQGTQVTVSS,high polyreactivity
15,QVQLVESGGGLVQAGGSLRLSCAASGRIFIWYAMGWYRQAPGKDRELVAAISTDGSPYYADSVKGRFTISRDNAKNTVYLQMNSLKPEDTAVYYCAAVPGYTHLWGGPFDYWGQGTQVTVSS,low polyreactivity
16,QVQLVESGGGLVQAGGSLRLSCAASGRIFIYAMGWYRQAPGKERELVAAISWSGGSTYYADSVKGRFTISRDNAKNTVYLQMNSLKPEDTAVYYCAADYEGWGYDYRGDYWGQGSQVTVSS,low polyreactivity
17,QVQLVESGGGLVQAGGSLRLSCAASGRIFIYKAMGWYRQAPGKERELVAAISSSGTSTYYADSVKGRFTISRDNAKNTVYLQKNSLKPEDTAVYYCNAVYNYRWYSQGYYWGQGTQVTVSS,high polyreactivity
18,QVQLVESGGGLVQAGGSLRLSCAASGRIFIYNAMGWYRQAPGKEREFVAAISRTGGNTYYADSVKGRFTISRDNAKNTVYLQMNSLKPEDTAVYYCATKRKWTYLSYDYWGQGTQVTVSS,low polyreactivity
19,QVQLVESGGGLVQAGGSLRLSCAASGRIFIYNAMGWYRQAPGKERELVAAINRSGVSTHYADSVKGRFTISRDHAKNTVYLQMNSLKPEDTAVYYCARTVYGARSYDYWGQGTQVTVSS,low polyreactivity
20,QVQLVESGGGLVQAGGSLRLSCAASGRIFIYNAMGWYTQAPGKERELVAAINRSGVSTHYADSVKGRFTISRDNAKNSVYLQMNSLKPEDTAVYYCARTVYGARSYDYWGQGTQVTVSS,low polyreactivity
21,QVQLVESGGGLVQAGGSLRLSCAASGRIFKFNAMGWYRQAPGKEMELVAATWSGGRTYYSDSVKGRFTISRDNAKYTVYLQMNCLKPEDTAVYYCNAADSSWYVLYGSYYRSGLDYWGQGTQVTVSS,low polyreactivity
22,QVQLVESGGGLVQAGGSLRLSCAASGRIFKGYSMGGYRQAPGTETELVASIRTGGTTNYADSVKGRFTISRDNAKNTVYLQMNSLKPEDTAVYYCNRGYYSYYGRYYYWGQGTQVTVSS,high polyreactivity

row,Sequence,polyreactivity (PSR sort gate)
1,QVQLVESGGGLVQAGGSLRLSCAASGRIFKINAMGWYRPAPGKERELVAGISGSGSDTYYADSVKGRFTISRDNAKNTVYLQMNSLKPEDTAVYYCAATVVQYYDRDYWGQGTQVTVSS,low polyreactivity
2,QVQLVESGGGLVQAGGSLRLSCAASGRIFKKYAMGWYRQAPGKERELVATISSGGSTYYADSVKGRFTISRDNAKNTVYLQMNSLKPEDTAVYYCARREYVRRDYFVTTYDYWGQGTQVTVSS,low polyreactivity
3,QVQLVESGGGLVQAGGSLRLSCAASGRIFKLNDMGWYRQAPGKERELVAAITRGTGSTYADSVKGRFTISRDNAMNTVYLQMNSLKPEDTAVYDCATRYSYRRLSFPRPDEMEYWGQGTQVTVSS,low polyreactivity
4,QVQLVESGGGLVQAGGSLRLSCAASGRIFKPNAMGGSRQAPGKEREFVARITRNTGSTYYADSVKGRFTISRDNAKNTVYLQMNSLKPEDTAVYYCAARFYRRNRFNYWGQGTLVTVSS,high polyreactivity
5,QVQLVESGGGLVQAGGSLRLSCAASGRIFKQYAMGWYRQAPGKEREFVAAISSRGTRTYYADSVKGRFTISRDNAKNTVYLQMISLKPEDTAVYYCNAVQAQAAYEYWGQGTQVTVSS,high polyreactivity
6,QVQLVESGGGLVQAGGSLRLSCAASGRIFKRNAMGWYRQAPGKERELVAAISYSGGSTYYADSVKGRFTISRDNAKQTVYLQMNSLKPEDTAVYYCAVDRYPTGITKYDYWGQGTLVTVSS,high polyreactivity
7,QVQLVESGGGLVQAGGSLRLSCAASGRIFKRNAMGWYRQAPGKERELVATISGSGGSTYYADSVKGRFTISRDNAKNTVYIQMNRLQPEDTAVYYCSATGFFARLSTIYYYWGQGTQVTVTS,high polyreactivity
8,QVQLVESGGGLVQAGGSLRLSCAASGRIFKRYAMGWYRQAPGKERELVAAIRTSDGITYYADSVKGRFTISRDNAKNTVYLQMNSLKPEDTAVYYCNADLSKAERWGQGTQVTVSS,low polyreactivity
9,QVQLVESGGGLVQAGGSLRLSCAASGRIFKRYAMGWYRQAPGKERELVAAITRGGSTNYADSVKGRFTISRDNAKNSVYLQMYSLKPEYTAVYYCAATTSRPYRSRYYYWGQGTQVTVSS,high polyreactivity
10,QVQLVESGGGLVQAGGSLRLSCAASGRIFKRYTLGWYRPAPAKERELVAAITKRADRTNYADSVKGRFTISRDNAKNTVYLQMNSLKPEDTAVYDCNAEGQNDHPSNGYISYKYDYWGQGTQVTVSS,low polyreactivity
11,QVQLVESGGGLVQAGGSLRLSCAASGRIFKRYVMGWYRQAPGKERELVSAISVRGASTYYADSVKGRFTISRDNAKNTVYLQMNSLKPEDTAVYYCATAGYRLLDYWGQGTQVTVSS,high polyreactivity
12,QVQLVESGGGLVQAGGSLRLSCAASGRIFKSYAMGGYRHAPGKERELVAAISSGDDTYYADSVKGRFTISRDNAKNTVYLQMNSLKQEDTAVYYCAADYWGWIYLYGDYLVDYWGQGTQVTVSS,low polyreactivity
13,QVQLVESGGGLVQAGGSLRLSCAASGRIFKSYAMGWYRQAPGKERELVAAISRSGGRTYYADSVKGRFTISRDNAKNTVYLQMNSLKPEDTAVYYCAATTFVAPYLGQGTQVTVSS,low polyreactivity
14,QVQLVESGGGLVQAGGSLRLSCAASGRIFKSYAMGWYRQAPGKERELVAAISSGDDTYYADSVKGRFTISRDNAKNTVYLQMNSLKPEDTAVYYCAADYWGWLYLYGDYLVDYWGQGTQVTVSS,low polyreactivity
15,QVQLVESGGGLVQAGGSLRLSCAASGRIFKSYAMGWYRQAPGKERELVAGITSGGGTYYADSLKGRFTISRDNAKTTVYLQMNSLKPEDTPVYYCATRTYRESTYDYWGQGTQVTVSS,high polyreactivity
16,QVQLVESGGGLVQAGGSLRLSCAASGRIFKSYAMGWYRQAPGKERELVASITWSGGRTYYADSVKGRFTISRDNAKNTVYLQMNSLIPEDTAVYYCAARTYSYGSILKYYYWGQGTQVTVSS,high polyreactivity
17,QVQLVESGGGLVQAGGSLRLSCAASGRIFKTYAMGWYRPAPGKERELVAAITASGGRTYYADSVKGRFTISRDNAKNTVYLQMNSLKPEDTAVYYCAKRPSYYARNSAYAYLSYGYWGQGTQVTVSS,low polyreactivity
18,QVQLVESGGGLVQAGGSLRLSCAASGRIFKVNTMGWYRQAPGKVRELVASIRGGGSTNYADSVKGRFTISRDNAKNTVYLQMNSLKPEDTAVYYCAAGTSKPTPIYGYWGQGTQVTGSS,low polyreactivity
19,QVQLVESGGGLVQAGGSLRLSCAASGRIFKVYAMGWYRQAPGKERELVATISRGGSTYYADSVKGRFTISRDNAKNTVYLQMNSLKPEDTAVYYCAKQRERYYWFGAWSYDYWGQGTQVTVSS,low polyreactivity
20,QVQLVESGGGLVQAGGSLRLSCAASGRIFKVYAMGWYRQAPGKERELVAVITGGGSTNYADSVKGRFTISRDNAKNTVYLQMNSLKPEDTAVYYCATEGYGHGGETDGGVYSDLGYWGQGTQVTVSS,low polyreactivity
21,QVQLVESGGGLVQAGGSLRLSCAASGRIFKWNAMGWYRQAPGKERELVAAIRWSGTSTYADSVKGRFTISRDNAKNTVYLQMNSLKPEDTAVYYCAASKRYTVGVRAFGKHDYWGQGTQVTVSS,low polyreactivity
